A word on the Kd: it is a measure of binding affinity in units of concentration. Low values mean tighter binding, high ones weaker binding.

The text below walks through data of paper PMC7855534.

In this test the target is C-terminally strep-tagged wild-type GRK5 (human) (UniProt P34947). Nature of the test: ITC. Background: In ITC the heat of successive injections is recorded.
Sequence of UniProt P34947 (P34947 whole entry): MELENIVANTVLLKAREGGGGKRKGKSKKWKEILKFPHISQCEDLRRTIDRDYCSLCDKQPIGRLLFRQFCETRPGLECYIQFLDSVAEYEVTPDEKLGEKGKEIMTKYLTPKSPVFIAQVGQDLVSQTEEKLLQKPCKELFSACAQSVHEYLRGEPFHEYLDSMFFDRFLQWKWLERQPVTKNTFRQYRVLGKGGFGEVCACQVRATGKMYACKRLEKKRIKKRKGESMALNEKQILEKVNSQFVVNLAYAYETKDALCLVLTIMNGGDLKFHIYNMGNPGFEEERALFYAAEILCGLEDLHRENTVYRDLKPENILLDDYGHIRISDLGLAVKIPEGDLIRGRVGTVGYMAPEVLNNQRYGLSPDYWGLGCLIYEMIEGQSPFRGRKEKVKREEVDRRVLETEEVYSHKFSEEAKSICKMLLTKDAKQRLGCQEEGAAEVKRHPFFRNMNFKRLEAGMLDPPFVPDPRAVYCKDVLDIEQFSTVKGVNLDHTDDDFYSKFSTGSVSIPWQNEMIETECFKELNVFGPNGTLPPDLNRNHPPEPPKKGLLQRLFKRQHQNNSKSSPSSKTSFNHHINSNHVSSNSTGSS

Consider “wild-type rat calmodulin (from UniProt P0DP29 1-149) (natural protein; other documents disagree on this pair)”, for which the Kd is 278 nM and the dH came out at 4.3 kcal/mol.
